Patent US5955579, “Islet-specific homeoprotein and transcriptional regulator of insulin gene expression, HOXB13” (Strang Cancer Prevention Center)

Target: HoxB13 (CIX-1, Isl-3) (Rattus norvegicus)
Experiment: EMSA; described as high affinity; competed by 50 ng unlabeled FLAT; 50 mM KCl, 20 mM HEPES pH 7.8, 1 mM EDTA, 20% glycerol, room temperature
Conditions: tags: GST fusion (pGEX-3X) expressed in E. coli BL21, GST removed by factor Xa; GATC 5' overhangs filled in
Method: For gel shift assays, the labeled fragment was incubated 15 minutes at room temperature with buffer alone (50 mM KCI, 20 mM HEPES pH 7.8, 1 mM EDTA, 20% glycerol, 1 mM DTt and 1 mM PMSF), 1 μl bacterially expressed HoxB13 (see Example 3; "rCIX-1" in FIG. 4), 1 μl HoxB13 and 50 ng unlabeled FLAT DNA ("rCIX-1+50 ng FLAT" in FIG. 4), 5 μg Hela cell nuclear extract, 5 μg RIN cell nuclear extract, 5 μg RIN extract and 50 ng FLAT, 5 μg HeLa extract and 50 ng FLAT (respectively, as shown in FIG. 4). The samples were then run on a 5% acrylamide gel in 0.5× TBE.

HoxB13 (CIX-1, Isl-3) (Rattus norvegicus), sequence (chain, as listed by the source): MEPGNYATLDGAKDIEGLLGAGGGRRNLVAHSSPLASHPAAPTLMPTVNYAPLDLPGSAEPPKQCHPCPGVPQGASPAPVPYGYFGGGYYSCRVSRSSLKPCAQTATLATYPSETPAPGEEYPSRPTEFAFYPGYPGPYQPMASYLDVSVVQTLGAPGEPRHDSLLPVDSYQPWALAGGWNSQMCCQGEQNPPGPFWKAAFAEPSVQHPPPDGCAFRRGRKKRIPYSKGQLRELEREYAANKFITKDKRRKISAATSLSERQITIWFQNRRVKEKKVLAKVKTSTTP

B1: FLAT element probe (dsDNA)
DNA 1: GATCCCCTTGTTAATAATCTAATTACCCTAGG
DNA 2: GATCCCTAGGGTAATTAGATTATTAACAAGGG
binding result: binds
